Assay results taken from publication PMC10572589.

Assays:
[1] = target: thermostable GHF11 xylanase AusM (Aspergillus usamii E001 (parent AuXyn11A))
[2] = target: AusM^N127A (Aspergillus usamii E001 (parent AuXyn11A))

B1: xylanase inhibitor protein SyXIP-I (natural protein)
chain: AGGKTGQVTVFWGRNKAEGSLREACDSGMYTMVTMSFLDVFGANGKYHLDLSGHDLSSVGADIKHCQSKGVPVSLSIGGYGTGYSLPSNRSALDLFDHLWNSYFGGSKPSVPRPFGDAWLDGVDLFLEHGTPADRYDVLALELAKHNIRGGPGKPLHLTATVRCGYPPAAHVGRALATGIFERVHVRTYESDKWCNQNLGWEGSWDKWTAAYPATRFYVGLTADDKSHQWVHPKNVYYGVAPVAQKKDNYGGIMLWDRYFDKQTNYSSLIKYYA
[1]
  molar excess of SyXIP-I over AusM needed for almost complete inhibition of xylanase activity (mol SyXIP-I per mol AusM): > 80
  molar ratio of SyXIP-I to AusM at which the inhibition rate of xylanase activity reached 50% (birchwood xylan, pH 4.6, 50 °C) (mol SyXIP-I per mol AusM): 7
[2]
  residual xylanase activity at a molar ratio of SyXIP-I/xylanase of 100:1 (% of initial activity): 62.7
